Laboratory results taken from paper PMC9482650, “Quantitative fragmentomics allow affinity mapping of interactomes” (Nature Communications, 2022).

T1: APBA1_1, Q02410
T1 sequence (Q02410 651-752, limits assumed, looked up): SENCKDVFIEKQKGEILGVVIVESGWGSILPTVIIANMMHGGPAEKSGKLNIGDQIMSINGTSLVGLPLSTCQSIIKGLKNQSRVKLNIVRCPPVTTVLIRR

T2: DLG3_3, Q92796
T2 sequence (Q92796 374-475, limits assumed, looked up): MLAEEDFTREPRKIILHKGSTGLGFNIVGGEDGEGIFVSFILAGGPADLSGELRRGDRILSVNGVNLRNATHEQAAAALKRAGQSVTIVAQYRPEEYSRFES

T3: GRIP1_4, Q9Y3R0
T3 sequence (Q9Y3R0 467-571, limits assumed, looked up): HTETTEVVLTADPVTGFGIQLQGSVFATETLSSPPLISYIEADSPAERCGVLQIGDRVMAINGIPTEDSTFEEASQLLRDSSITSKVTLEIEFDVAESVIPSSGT

T4: LIN7A, O14910
T4 sequence (O14910 103-200, limits assumed, looked up): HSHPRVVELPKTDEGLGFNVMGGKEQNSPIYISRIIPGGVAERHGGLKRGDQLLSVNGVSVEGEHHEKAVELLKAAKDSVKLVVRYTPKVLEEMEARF

T5: MPP6, Q9NZW5
T5 sequence (Q9NZW5 125-219, limits assumed, looked up): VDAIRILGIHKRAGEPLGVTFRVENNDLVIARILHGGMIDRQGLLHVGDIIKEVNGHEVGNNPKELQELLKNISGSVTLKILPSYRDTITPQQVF

T6: MPP7, Q5T2T1
T6 sequence (Q5T2T1 134-230, limits assumed, looked up): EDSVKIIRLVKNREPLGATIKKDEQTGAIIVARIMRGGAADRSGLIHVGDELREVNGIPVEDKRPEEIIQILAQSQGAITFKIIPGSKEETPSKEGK

T7: RAPGEF6, Q8TEU7
T7 sequence (Q8TEU7 525-625, limits assumed, looked up): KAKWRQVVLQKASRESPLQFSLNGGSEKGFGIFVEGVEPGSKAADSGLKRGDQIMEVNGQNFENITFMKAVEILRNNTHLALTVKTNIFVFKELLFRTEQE

T8: SNTG1, Q9NSN8
T8 sequence (Q9NSN8 52-150, limits assumed, looked up): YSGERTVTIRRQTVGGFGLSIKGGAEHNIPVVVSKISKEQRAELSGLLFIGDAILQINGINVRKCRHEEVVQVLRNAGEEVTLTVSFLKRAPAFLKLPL


Legend:
Assay in all cases: holdup assay
Set-up in all cases: key: below the threshold = too weak to quantify, mostly under pKd 3.1 to 4
Conditions in all cases: plain residues with an end cap or a label only (N-terminal biotin on a linker: ado-ado)
APBA1_1, Q02410 = molecular target: T1, APBA1_1, Q02410
CASK, O14936 = molecular target: CASK, O14936
DLG1_3, Q12959 = molecular target: DLG1_3, Q12959
DLG3_3, Q92796 = molecular target: T2, DLG3_3, Q92796
FRMPD2_1, Q68DX3 = molecular target: FRMPD2_1, Q68DX3
FRMPD3, Q5JV73 = molecular target: FRMPD3, Q5JV73
GRIP1_4, Q9Y3R0 = molecular target: T3, GRIP1_4, Q9Y3R0
GRIP2_4, Q9C0E4 = molecular target: GRIP2_4, Q9C0E4
GRIP2_5, Q9C0E4 = molecular target: GRIP2_5, Q9C0E4
GRIP2_6, Q9C0E4 = molecular target: GRIP2_6, Q9C0E4
HTRA1, Q92743 = molecular target: HTRA1, Q92743
HTRA2, O43464 = molecular target: HTRA2, O43464
IL16_3, Q14005 = molecular target: IL16_3, Q14005
IL16_4, Q14005 = molecular target: IL16_4, Q14005
Inadl_9, Q8NI35 = molecular target: Inadl_9, Q8NI35
LDB3, O75112 = molecular target: LDB3, O75112
LIMK2, P53671 = molecular target: LIMK2, P53671
LIN7A, O14910 = molecular target: T4, LIN7A, O14910
LNX1_1, Q8TBB1 = molecular target: LNX1_1, Q8TBB1
LNX1_3, Q8TBB1 = molecular target: LNX1_3, Q8TBB1
MAGI1_1, Q96QZ7 = molecular target: MAGI1_1, Q96QZ7
MAGI1_2, Q96QZ7 = molecular target: MAGI1_2, Q96QZ7
MAST1, Q9Y2H9 = molecular target: MAST1, Q9Y2H9
MPP6, Q9NZW5 = molecular target: T5, MPP6, Q9NZW5
MPP7, Q5T2T1 = molecular target: T6, MPP7, Q5T2T1
NHERF4_4, Q86UT5 = molecular target: NHERF4_4, Q86UT5
PDZRN4_1, Q6ZMN7 = molecular target: PDZRN4_1, Q6ZMN7
RAPGEF6, Q8TEU7 = molecular target: T7, RAPGEF6, Q8TEU7
SNTG1, Q9NSN8 = molecular target: T8, SNTG1, Q9NSN8

LNX1_1, Q8TBB1, sequence (Q8TBB1 261-371): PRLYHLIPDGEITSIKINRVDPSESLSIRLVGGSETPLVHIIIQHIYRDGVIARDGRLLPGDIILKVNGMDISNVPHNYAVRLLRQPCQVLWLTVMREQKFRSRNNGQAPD
FRMPD3, Q5JV73, sequence (Q5JV73 12-100): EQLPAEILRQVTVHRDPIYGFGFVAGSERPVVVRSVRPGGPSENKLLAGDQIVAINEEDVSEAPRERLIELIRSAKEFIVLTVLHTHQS
MAGI1_2, Q96QZ7, sequence (Q96QZ7 456-580): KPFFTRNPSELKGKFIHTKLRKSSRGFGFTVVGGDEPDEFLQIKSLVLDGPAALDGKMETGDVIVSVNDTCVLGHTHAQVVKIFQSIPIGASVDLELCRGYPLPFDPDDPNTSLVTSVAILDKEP
FRMPD2_1, Q68DX3, sequence (Q68DX3 770-861): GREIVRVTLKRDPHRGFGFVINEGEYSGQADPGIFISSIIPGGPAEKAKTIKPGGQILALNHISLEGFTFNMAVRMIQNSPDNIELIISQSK
GRIP2_5, Q9C0E4, sequence (Q9C0E4 544-642): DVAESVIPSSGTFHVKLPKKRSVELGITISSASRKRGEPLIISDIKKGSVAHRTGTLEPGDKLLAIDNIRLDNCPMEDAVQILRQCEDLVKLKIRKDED
HTRA1, Q92743, sequence (Q92743 360-477): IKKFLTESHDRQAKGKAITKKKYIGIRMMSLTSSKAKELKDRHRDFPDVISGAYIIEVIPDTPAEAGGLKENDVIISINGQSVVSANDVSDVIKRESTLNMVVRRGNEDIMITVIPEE
HTRA2, O43464, sequence (O43464 355-458): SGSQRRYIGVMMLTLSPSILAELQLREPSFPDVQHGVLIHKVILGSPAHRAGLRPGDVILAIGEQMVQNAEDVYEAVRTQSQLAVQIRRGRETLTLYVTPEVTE
GRIP2_4, Q9C0E4, sequence (Q9C0E4 446-548): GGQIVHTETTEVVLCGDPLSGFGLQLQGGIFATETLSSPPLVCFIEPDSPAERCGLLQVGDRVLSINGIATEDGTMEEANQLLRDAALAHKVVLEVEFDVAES
LDB3, O75112, sequence (O75112 1-94): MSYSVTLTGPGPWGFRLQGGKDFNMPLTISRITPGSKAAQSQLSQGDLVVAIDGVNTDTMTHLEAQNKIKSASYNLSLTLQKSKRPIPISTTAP
MAGI1_1, Q96QZ7, sequence (Q96QZ7 1-106): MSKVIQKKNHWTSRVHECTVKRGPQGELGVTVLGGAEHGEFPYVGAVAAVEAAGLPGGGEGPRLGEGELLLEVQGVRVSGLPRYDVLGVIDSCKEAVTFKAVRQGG
PDZRN4_1, Q6ZMN7, sequence (Q6ZMN7 213-318): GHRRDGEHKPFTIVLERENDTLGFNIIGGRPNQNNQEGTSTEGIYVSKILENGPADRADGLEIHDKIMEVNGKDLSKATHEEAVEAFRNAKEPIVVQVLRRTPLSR
DLG1_3, Q12959, sequence (Q12959 457-571): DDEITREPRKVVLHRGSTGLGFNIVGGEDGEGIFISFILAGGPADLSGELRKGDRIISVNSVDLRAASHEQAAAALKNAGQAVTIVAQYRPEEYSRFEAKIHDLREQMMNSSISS
MAST1, Q9Y2H9, sequence (Q9Y2H9 962-1065): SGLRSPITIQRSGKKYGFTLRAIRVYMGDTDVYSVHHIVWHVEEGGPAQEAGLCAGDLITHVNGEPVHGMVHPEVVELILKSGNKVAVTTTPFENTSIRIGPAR
CASK, O14936, sequence (O14936 487-570): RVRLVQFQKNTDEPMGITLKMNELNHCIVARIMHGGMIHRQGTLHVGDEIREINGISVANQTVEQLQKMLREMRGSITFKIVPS
NHERF4_4, Q86UT5, sequence (Q86UT5 464-550): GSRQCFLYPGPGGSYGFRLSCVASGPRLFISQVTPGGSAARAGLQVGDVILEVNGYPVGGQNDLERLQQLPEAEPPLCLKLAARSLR
LNX1_3, Q8TBB1, sequence (Q8TBB1 500-596): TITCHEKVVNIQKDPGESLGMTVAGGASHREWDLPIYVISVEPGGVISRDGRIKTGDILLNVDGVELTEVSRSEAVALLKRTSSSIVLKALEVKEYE
IL16_4, Q14005, sequence (Q14005 1229-1329): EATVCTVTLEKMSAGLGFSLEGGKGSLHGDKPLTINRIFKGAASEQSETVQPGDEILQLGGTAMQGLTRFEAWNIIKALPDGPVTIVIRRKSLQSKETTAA
LIMK2, P53671, sequence (P53671 143-248): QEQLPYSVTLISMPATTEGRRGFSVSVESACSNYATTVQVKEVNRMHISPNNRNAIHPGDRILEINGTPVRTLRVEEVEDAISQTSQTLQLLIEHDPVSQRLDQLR
GRIP2_6, Q9C0E4, sequence (Q9C0E4 648-740): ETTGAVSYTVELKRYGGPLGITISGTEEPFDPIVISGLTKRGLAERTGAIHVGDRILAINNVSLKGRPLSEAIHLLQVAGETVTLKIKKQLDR
IL16_3, Q14005, sequence (Q14005 1107-1207): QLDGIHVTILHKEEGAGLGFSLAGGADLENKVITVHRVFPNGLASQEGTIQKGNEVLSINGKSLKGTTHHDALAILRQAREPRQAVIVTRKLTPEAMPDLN
Inadl_9, Q8NI35, sequence (Q8NI35 1530-1615): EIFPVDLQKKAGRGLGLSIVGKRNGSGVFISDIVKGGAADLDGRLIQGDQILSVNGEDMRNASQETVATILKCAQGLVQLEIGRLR

| pKd (APBA1_1, Q02410) | pKd (CASK, O14936) | pKd (DLG1_3, Q12959) | pKd (DLG3_3, Q92796) | pKd (FRMPD2_1, Q68DX3) | pKd (FRMPD3, Q5JV73) | pKd (GRIP1_4, Q9Y3R0) | pKd (GRIP2_4, Q9C0E4) | pKd (GRIP2_5, Q9C0E4) | pKd (GRIP2_6, Q9C0E4) | pKd (HTRA1, Q92743) | pKd (HTRA2, O43464) | pKd (IL16_3, Q14005) | pKd (IL16_4, Q14005) | pKd (Inadl_9, Q8NI35) | pKd (LDB3, O75112) | pKd (LIMK2, P53671) | pKd (LIN7A, O14910) | pKd (LNX1_1, Q8TBB1) | pKd (LNX1_3, Q8TBB1) | Binder | further results |
| --- | --- | --- | --- | --- | --- | --- | --- | --- | --- | --- | --- | --- | --- | --- | --- | --- | --- | --- | --- | --- | --- |
| below the threshold | below the threshold | below the threshold | below the threshold | below the threshold | below the threshold | below the threshold | below the threshold | below the threshold | below the threshold | below the threshold | below the threshold | below the threshold | below the threshold | below the threshold | below the threshold | below the threshold | below the threshold | below the threshold | below the threshold | RDYTQSSSSL [GRM5, P41594] | pKd (MAGI1_1, Q96QZ7): below the threshold; pKd (MAGI1_2, Q96QZ7): below the threshold; pKd (MAST1, Q9Y2H9): 4.67; pKd (MPP6, Q9NZW5): below the threshold; pKd (MPP7, Q5T2T1): below the threshold; pKd (NHERF4_4, Q86UT5): below the threshold; pKd (PDZRN4_1, Q6ZMN7): below the threshold; pKd (RAPGEF6, Q8TEU7): below the threshold; pKd (SNTG1, Q9NSN8): below the threshold |
| below the threshold | below the threshold | 3.73 | below the threshold | below the threshold | below the threshold | below the threshold | below the threshold | below the threshold | below the threshold | 4.18 | below the threshold | below the threshold | below the threshold | 3.69 | below the threshold | below the threshold | below the threshold | 3.82 | below the threshold | DSEEELPTRL [GRK6, P43250] | pKd (MAGI1_1, Q96QZ7): below the threshold; pKd (MAGI1_2, Q96QZ7): below the threshold; pKd (MAST1, Q9Y2H9): 4.19; pKd (MPP6, Q9NZW5): below the threshold; pKd (MPP7, Q5T2T1): below the threshold; pKd (NHERF4_4, Q86UT5): below the threshold; pKd (PDZRN4_1, Q6ZMN7): below the threshold; pKd (RAPGEF6, Q8TEU7): below the threshold; pKd (SNTG1, Q9NSN8): below the threshold |
| below the threshold | below the threshold | below the threshold | below the threshold | below the threshold | below the threshold | below the threshold | below the threshold | below the threshold | below the threshold | 3.89 | below the threshold | below the threshold | below the threshold | below the threshold | below the threshold | below the threshold | below the threshold | below the threshold | below the threshold | FVFESRKEIL [TBPL1, P62380] | pKd (MAGI1_1, Q96QZ7): below the threshold; pKd (MAGI1_2, Q96QZ7): below the threshold; pKd (MAST1, Q9Y2H9): 4.21; pKd (MPP6, Q9NZW5): 3.53; pKd (MPP7, Q5T2T1): below the threshold; pKd (NHERF4_4, Q86UT5): below the threshold; pKd (PDZRN4_1, Q6ZMN7): below the threshold; pKd (RAPGEF6, Q8TEU7): below the threshold; pKd (SNTG1, Q9NSN8): below the threshold |
| below the threshold | below the threshold | below the threshold | 3.6 | below the threshold | below the threshold | below the threshold | below the threshold | below the threshold | below the threshold | below the threshold | below the threshold | below the threshold | below the threshold | below the threshold | below the threshold | below the threshold | below the threshold | 3.52 | below the threshold | QKASRNESTF [POLR1D, P0DPB6] | pKd (MAGI1_1, Q96QZ7): below the threshold; pKd (MAGI1_2, Q96QZ7): below the threshold; pKd (MAST1, Q9Y2H9): 4.08; pKd (MPP6, Q9NZW5): below the threshold; pKd (MPP7, Q5T2T1): below the threshold; pKd (NHERF4_4, Q86UT5): 3.81; pKd (PDZRN4_1, Q6ZMN7): below the threshold; pKd (RAPGEF6, Q8TEU7): below the threshold; pKd (SNTG1, Q9NSN8): below the threshold |
| below the threshold | below the threshold | below the threshold | below the threshold | below the threshold | 4.02 | below the threshold | below the threshold | below the threshold | below the threshold | 4.9 | below the threshold | below the threshold | below the threshold | below the threshold | below the threshold | below the threshold | below the threshold | below the threshold | below the threshold | KPDKQEEFYA [SDC3, O75056] | pKd (MAGI1_1, Q96QZ7): below the threshold; pKd (MAGI1_2, Q96QZ7): below the threshold; pKd (MAST1, Q9Y2H9): 3.64; pKd (MPP6, Q9NZW5): 3.77; pKd (MPP7, Q5T2T1): below the threshold; pKd (NHERF4_4, Q86UT5): below the threshold; pKd (PDZRN4_1, Q6ZMN7): below the threshold; pKd (RAPGEF6, Q8TEU7): below the threshold; pKd (SNTG1, Q9NSN8): below the threshold |
